# In patent publication US20230095558A1 (SPARX BIOTECH JIANGSU, published 2023):
# No end group written: not given here.
# Target: T1, TIM3 protein (cat #CHI-MF-210T3-0050, Chimerigen)
# T1 construct: Bought recombinant protein used in SPR; also called TLM3 protein
# Assay: SPR (OpenSPR), TIM3 protein immobilised on chip, peptide in flow
# Experimental: SPR assay: Affinity identification between the TIM3-targeting binding peptides and TIM3 was performed by immobilizing TIM3 protein (50 μg/mL) on the surface of a nanogold sensor chip upon activation of EDC/NHS. […] The competitive binding ability of the TIM3-targeting binding peptides to the ligand was identified by immobilizing the Galectin-9 protein (25 μg/mL) on a sensor chip at a detection concentration of 100 μg/mL for the TIM3-targeting binding peptides, and at a concentration of the mixed sample of 100 μg/mL TIM3-targeting binding peptides and 10 μg/mL TIM3 protein. The detection sample was loaded at a flow rate of 20 μL/min for about 7 min according to the instrument instructions. The KD, ka and kd values were calculated and analyzed by Trace Drawer Evaluation (version 2.0) software.
Binder,Kd [µM],koff [s⁻¹],kon [M⁻¹ s⁻¹]
HDAFPRPHLFRN (not fully specified) [P1301-12-peptide (targeting TIM3)],80.1,0.00428,
SQEVFAWTFSPRWTTAPKAL (Synthetic 20-mer from phage display screening) [K3-20-peptide (targeting TIM3)],20.1,0.0132,
GSWNTFRAQPTI (Synthetic 12-mer from phage display screening) [P24-12-peptide (targeting TIM3)],0.095,1.69e-05,
ADFRVMADMSMY (Synthetic 12-mer from phage display screening) [P29-12-peptide (targeting TIM3)],200,0.00747,
FTYAHPVSHRWESSVHVDQW (Synthetic 20-mer from phage display screening) [K2-20-peptide (targeting TIM3)],227,0.0103,
SPFYYSGHQWVPHPRQAASY (Synthetic 20-mer from phage display screening) [K10-20-peptide (targeting TIM3)],26.1,0.023,
ALWPSSSMSSTI (Synthetic 12-mer from phage display screening) [P1303-12-peptide (targeting TIM3)],26.3,0.00308,117
LTPHKHHKHLHA (Synthetic 12-mer from phage display screening) [P20-12-peptide (targeting TIM3)],24.3,0.00625,
SHDTRSPFTWGR (Synthetic 12-mer from phage display screening) [P1307-12-peptide (targeting TIM3)],117,0.00789,
WQQNNPHLWDVFLGVPRTTE (Synthetic 20-mer from phage display screening) [K5-20-peptide (targeting TIM3)],18,0.016,
